PMC3605045, “GH1-family 6-P-β-glucosidases from human microbiome lactic acid bacteria” (Acta Crystallographica Section D: Biological Crystallography, 2013)

Substrate: O=P(O)(O)OC[C@H]1O[C@@H](Oc2ccccc2CO)[C@H](O)[C@@H](O)[C@@H]1O
Test: purified protein
Assay type: biochemical, Streptococcus mutans
Conditions: 0.1 M HEPES-NaOH pH 8.0, 2 mM NADP+, 298 K, SeMet-labelled enzyme 0.02 µM, substrate 10-2000 µM, 25.0 °C

B1: SmBgl (Streptococcus mutans UA159) (protein)
chain: MSKLPENFLWGGAVAAHQLEGGWQEGGKGISVADVMTAGRHGVAREITAGVLEGKYYPNHEAIDFYHHYKEDVKLFAEMGFKCFRTSIAWTRIFPKGDEAEPNEAGLQFYDDLFDECLKYGIEPVVTLSHFELPYHLVTEYGGFTNRKVIDFFVHFAEVCFRRYKDKVKYWMTFNEINNQANYQEDFAPFTNSGIVYKEGDDREAIMYQAAHYELVASARAVKIGHAINPNLNIGCMVAMCPIYPATCNPKDILMAQKAMQKRYYFADVHVHGFYPEHIFKYWERKAIKVDFTERDKKDLFEGTVDYIGFSYYMSFVIDAHRENNPYYDYLETEDLVKNPYVKASDWDWQIDPQGLRYALNWFTDMYHLPLFIVENGFGAIDQVEADGMVHDDYRIDYLGAHIKEMIKAVDEDGVELMGYTPWGCIDLVSAGTGEMRKRYGFIYVDKDDEGKGTLKRSPKLSFNWYKEVIASNGDDI
notes: full length, 477 residues, ~55 kDa, homodimer; His6 cut by TEV, SNA- left at N-terminus; E. coli BL21 (DE3) Magic, pMCSG7; SeMet-labelled protein in kinetic assays
With B1 the Km was 1020 ± 70 µM.
